The term Kd denotes the free concentration of one partner at which half of the binding sites on the other are occupied at equilibrium, for simple one-to-one binding. The koff is the rate constant with which the complex falls apart. The term kon denotes the rate constant with which the complex forms.

One test deals with Calu3 tumor model. Put plainly: Calu3 xenograft after chemotherapy: tumor response and NRG1 expression in residual tumor cells (qPCR). Format: in vivo, human. The procedure:
(§1) RNA was isolated using the Qiagen RNeasy Micro Kit, Complementary DNA was prepared from total RNA using ABI high fidelity kit according to manufacturer's instructions. NRG1alpha, NRG1beta, HER3, HER4 expression was determined using ABI gene specific primers/probe by quantitative real time PCR (ABI 7500). Gene expression was normalized using GAPDH or RAB14 house keeping genes.
(§2) Tumor cells (10-20 million) were transplanted into right flank of athymic nude mice. When tumor size reached ˜200 mm^3, the mice were divided into different treatment groups. Mice were then treated with either vehicle or chemotherapy (paclitaxel, i.v.+cisplatin, i.p.) for the initial studies. The chemotherapy dosing regimen was paclitaxel 20 mg/kg i.v. every other day for 5 doses and cisplatin 5 mg/kg i.p. on days 1 and 7 for the Calu3 model and days 1 and 14 for the H441 model. Regressed tumors and time matched vehicle controls were collected at least 1 week after the last dose of chemo. Tumors were dissociated using dispase/collagenase and samples were FACS sorted to collect the GFP positive tumor cells. For the NRG1 knockdown studies, the treatment groups were: sucrose, doxycycline (dox), chemotherapy+sucrose, and chemotherapy+doxycycline. […]
(§3) The expression of NRG1 in TRICs isolated from the Calu3 and H441 xenograft models was analyzed. […]
In general terms: Xenograft models place foreign cells or tissue in a host animal.

In the next test the test system is H441 tumor model. Put plainly: H441 xenograft after chemotherapy: tumor response and NRG1 expression in residual tumor cells (qPCR). The test is classed as in vivo, human. The protocol: as §1, §2, §3
Test [1] deals with T1, Recombinant human NRG1-β ECD domain (R&D Systems, cat#377-HB/CF) (human, UniProt Q02297-11 121-191, limits assumed).
T1 construct: also called NRG1-beta; HRG1β
T1 sequence: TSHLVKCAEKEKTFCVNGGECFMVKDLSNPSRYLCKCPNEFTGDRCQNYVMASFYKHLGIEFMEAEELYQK
Put plainly: SPR (BIAcore T100), IgG captured by anti-human Fc, NRG1β injected; sensorgram shown for 6.25 nM NRG-beta. The procedure:
(§4) Binding affinities of anti-NRG1 IgGs were measured by Surface Plasmon Resonance (SRP) using a BIAcore™-T100 instrument. Anti-NRG1 human IgGs were captured by mouse anti-human Fc antibody (GE Healthcare, cat# BR-1008-39) coated on CM5 biosensor chips to achieve approximately 1000 response units (RU). […] Association rates (kₒₙ) and dissociation rates (koff) were calculated using a simple one-to-one Langmuir binding model (BIAcore Evaluation Software version 3.2). The equilibrium dissociation constant (KD) was calculated as the ratio koff/kₒₙ.

The target of test [2] is T2, Recombinant human NRG1-α EGF domain (R&D Systems, cat#296-HR/CF) (human, UniProt Q02297 177-241).
T2 construct: also called NRG1-alpha; HRG1α
T2 sequence: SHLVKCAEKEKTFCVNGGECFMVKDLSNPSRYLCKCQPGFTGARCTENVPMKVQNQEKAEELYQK
Put plainly: SPR (BIAcore T100), IgG captured by anti-human Fc, NRG1α injected; sensorgram shown for 6.25 nM NRG-alpha. The protocol:
as §4
(Surface plasmon resonance follows binding to a sensor surface in real time, without labels.)

Another test addresses HB-EGF (UniProt Q99075 63-148, limits assumed). Put plainly: ELISA.
For another test, the target named is T3, Betacellulin (BTC) (UniProt P35070 32-111).
T3 sequence (looked up): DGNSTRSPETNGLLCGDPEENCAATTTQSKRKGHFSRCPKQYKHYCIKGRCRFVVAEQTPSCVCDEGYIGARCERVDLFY
Put plainly: ELISA.

The next test addresses EGF (UniProt P01133 971-1023). Put plainly: ELISA.
Test [3] deals with T4, Recombinant human Neuregulin 1-beta (rhNRG1b, Genentech) (human, UniProt Q02297 1-640).
T4 sequence: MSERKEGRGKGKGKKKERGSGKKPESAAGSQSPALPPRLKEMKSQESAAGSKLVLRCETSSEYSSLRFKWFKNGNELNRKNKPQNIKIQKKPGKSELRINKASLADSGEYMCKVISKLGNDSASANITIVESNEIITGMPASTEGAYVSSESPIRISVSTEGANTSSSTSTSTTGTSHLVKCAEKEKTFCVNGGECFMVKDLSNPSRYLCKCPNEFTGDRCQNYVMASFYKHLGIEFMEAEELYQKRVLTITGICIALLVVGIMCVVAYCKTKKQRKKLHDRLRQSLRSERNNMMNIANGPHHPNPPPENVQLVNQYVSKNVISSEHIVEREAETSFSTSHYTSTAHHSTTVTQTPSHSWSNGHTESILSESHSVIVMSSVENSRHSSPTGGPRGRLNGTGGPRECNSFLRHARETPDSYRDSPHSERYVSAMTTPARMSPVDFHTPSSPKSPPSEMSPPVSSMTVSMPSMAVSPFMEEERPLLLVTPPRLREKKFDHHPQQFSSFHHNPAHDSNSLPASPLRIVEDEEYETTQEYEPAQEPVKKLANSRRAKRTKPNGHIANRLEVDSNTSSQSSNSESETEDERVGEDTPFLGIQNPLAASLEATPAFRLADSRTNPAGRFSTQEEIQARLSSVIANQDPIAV
Put plainly: cell-based or functional assay.

For test [4], the target named is T2, Recombinant human NRG1-α EGF domain …. Put plainly: cell-based or functional assay.
For test [5] the target is unchanged. Put plainly: SPR (BIAcore T100), IgG captured by anti-human Fc, NRG1α injected; table under the head '250 nM NRG1-alpha'. The procedure:
as §4

Test [6] has as its target T1, Recombinant human NRG1-β ECD domain …. Put plainly: SPR (BIAcore T100), IgG captured by anti-human Fc, NRG1β (HRG-beta) injected; sensorgram shown for 7.8 nM (sheet: '7.8 mnM HRG beta'). The procedure: as §4
For test [7] the target is unchanged. Put plainly: SPR (BIAcore T100), IgG captured by anti-human Fc; table under the head '125nM NRG-beta'; this table is identical to that of FIG. 9 (NRG1-alpha) and does not fit the slow dissociation of the sensorgrams above it.
The target of test [8] is T2, Recombinant human NRG1-α EGF domain …. Put plainly: SPR (BIAcore T100), IgG captured by anti-human Fc, NRG1α (HRG-alpha) injected; sensorgram shown for 7.8 nM (sheet: '7.8 mnM HRG alpha'). The procedure: as §4

Sequence of EGF (P01133 971-1023 limits assumed): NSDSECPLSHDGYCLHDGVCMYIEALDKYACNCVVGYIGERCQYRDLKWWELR
Sequence of HB-EGF (Q99075 63-148 limits assumed): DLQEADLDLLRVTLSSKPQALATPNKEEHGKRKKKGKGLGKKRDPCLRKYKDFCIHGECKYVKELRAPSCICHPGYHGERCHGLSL

On to `Nc1ccn([C@@H]2O[C@H](CO)[C@@H](O)C2(F)F)c(=O)n1` [gemcitabine], for which the “tumor response to treatment” value in the test with Calu3 tumor model and in the test on H441 tumor model was “tumor regression” throughout.
`CCC1=C[C@@H]2CN(C1)Cc1c([nH]c3ccccc13)[C@@](C(=O)OC)(c1cc3c(cc1OC)N(C)[C@H]1[C@@](O)(C(=O)OC)[C@H](OC(C)=O)[C@]4(CC)C=CCN5CC[C@]31[C@@H]54)C2` [vinorelbine]: the “tumor response to treatment” value with Calu3 tumor model and in the test with H441 tumor model was “continued to grow” each time.

B1: anti-NRG1 antibody 526.90.28 (antibody, human IgG1, kappa, V domains shown)
VH: EVQLVESGGGLVQPGGSLRLSCAASGFTFSDIAMSWVRQAPGKGLEWVSWIYPSGGNTYYADSVKGRFTISADTSKNTAYLQMNSLRAEDTAVYYCARSYILSQKSATWAFDYWGQGTLVTVSS
VL: DIQMTQSPSSLSASVGDRVTITCRASQSISSYLAWYQQKPGKAPKLLIYGASSRASGVPSRFSGSGSGTDFTLTISSLQPEDFATYYCQQSYSTPITFGQGTKVEIKR
notes: also called YW526.90.28
Turning to B1, the Kd in test [1] was 1.09 nM; in [2], 0.587 nM. Moreover, the koff in test [1] was 0.000367 s⁻¹; in [2], 0.000595 s⁻¹. Further, the kon turned out to be 337000 M⁻¹ s⁻¹ in test [1] and 1.01e+06 M⁻¹ s⁻¹ in test [2]. Besides, the binding result with HB-EGF, in the test with Betacellulin (BTC) and with EGF was “no binding” throughout. Further, the “IC50 of inhibition of Her3 activation (phosphorylation), KIRA on MCF-7 cells, 0.2 nM rhNRG1b” value in test [3] amounted to 1.44 nM. Further, the “IC50 of inhibition of Her3 activation (phosphorylation), KIRA on MCF-7 cells, 0.5 nM rhNRG1a” value in test [4] was 13.9 nM.

B2: anti-NRG1 antibody 538.24 (antibody, human IgG1, V domains shown)
VH: EVQLVESGGGLVQPGGSLRLSCAASGFTFSGTWIHWVRQAPGKGLEWVAAITPADGSTNYADSVKGRFTISADTSKNTAYLQMNSLRAEDTAVYYCATYMFAMDYWGQGTLVTVSS
VL: DIQMTQSPSSLSASVGDRVTITCRASQDVSTAVAWYQQKPGKAPKLLIYSASFLYSGVPSRFSGSGSGTDFTLTISSLQPEDFATYYCQQSYTTPPTFGQGTKVEIKR
notes: also called YW538.24
For the molecule B2, the Kd in test [5] is above 400 nM.

B3: anti-NRG1 antibody 538.24.94 (antibody, human IgG1, V domains shown)
VH: EVQLVESGGGLVQPGGSLRLSCAASGFTFSGTWIHWVRQAPGKGLEWVAAITPADGSTNYADSVKGRFTISADTSKNTAYLQMNSLRAEDTAVYYCATYMFAMDYWGQGTLVTVSS
VL: DIQMTQSPSSLSASVGDRVTITCRASQDVKKSLAWYQQKPGKAPKLLIYGASNLESGVPSRFSGSGSGTDFTLTISSLQPEDFATYYCQQHYTLPLTFGQGTKVEIKR
notes: also called YW538.24.94
As for B3, the values for the Kd in test [6], in test [7] and in [8] were 0.109 nM, 1.96 nM and 1.74 nM, respectively. Also, the koff in test [6] was found to be 7.34e-05 s⁻¹; in test [8], 0.00674 s⁻¹. The kon in test [6] turned out to be 674000 M⁻¹ s⁻¹; in test [7] it was 480000 M⁻¹ s⁻¹; in [8] it was 3.87e+06 M⁻¹ s⁻¹.

B4: anti-NRG1 antibody 538.24.36 (antibody, human IgG1, V domains shown)
VH: EVQLVESGGGLVQPGGSLRLSCAASGFTFSGTWIHWVRQAPGKGLEWVAAITPADGSTNYADSVKGRFTISADTSKNTAYLQMNSLRAEDTAVYYCATYMFAMDYWGQGTLVTVSS
VL: DIQMTQSPSSLSASVGDRVTITCRASQNVDRSLAWYQQKPGKAPKLLIYAASSLESGVPSRFSGSGSGTDFTLTISSLQPEDFATYYCQQHYTLPFTFGQGTKVEIKR
notes: also called YW538.24.36
As to B4, in test [5], the Kd came to 13.2 nM, the koff was 0.0252 s⁻¹ and the kon turned out to be 1.91e+06 M⁻¹ s⁻¹. Also, in [7], the Kd worked out at 13.2 nM, the koff was 0.0252 s⁻¹ and the kon was 1.91e+06 M⁻¹ s⁻¹.

B5: anti-NRG1 antibody 538.24.17 (antibody, human IgG1, V domains shown)
VH: EVQLVESGGGLVQPGGSLRLSCAASGFTFSGTWIHWVRQAPGKGLEWVAAITPADGSTNYADSVKGRFTISADTSKNTAYLQMNSLRAEDTAVYYCATYMFAMDYWGQGTLVTVSS
VL: DIQMTQSPSSLSASVGDRVTITCRASQDVSTAVAWYQQKPGKAPKLLIYSASFLYSGVPSRFSGSGSGTDFTLTISSLQPEDFATYYCQQSYWMPPTFGQGTKVEIKR
notes: also called YW538.24.17
On to B5, for which, in test [5], the Kd amounted to 5.18 nM, the koff was determined as 0.0081 s⁻¹ and the kon came to 1.56e+06 M⁻¹ s⁻¹. In test [7], the Kd was 5.18 nM, the koff is 0.0081 s⁻¹ and the kon was 1.56e+06 M⁻¹ s⁻¹.

The record behind these values is patent publication US20140363438A1, “NEUREGULIN ANTIBODIES AND USES THEREOF” (Genentech, Inc., priority 2011, published 2014).
